Measured values published in US20210253718A1 (MODMAB THERAPEUTICS, published 2021).

Columns and labels:
[1] = target: T1, FZD1 cysteine-rich domain (CRD), MYC-tagged and GPI-anchored on CHO cells (human); experiment: flow cytometry, CHO-CRD cells;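 note: flow cytometry of Fab binding to CHO cells overexpressing a Frizzled CRD, with binding defined as median fluorescence over twice that of CHO cells lacking any Frizzled CRD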
Procedure: (§1) Binding was measured via flow cytometry analysis of CHO cells overexpressing CRD of FZD1, FZD2, FZD3, FZD4, FZD5, FZD6, FZD7, FZD8, FZD9 or FZD10. Median fluorescence values are shown.

[2] = target: T2, FZD2 cysteine-rich domain (CRD), MYC-tagged and GPI-anchored on CHO cells (human, UniProt Q14332 35-161); experiment: flow cytometry, CHO-CRD cells;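 note: flow cytometry of Fab binding to CHO cells overexpressing a Frizzled CRD, with binding defined as median fluorescence over twice that of CHO cells lacking any Frizzled CRD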
Procedure: as §1

[3] = target: T3, FZD3 cysteine-rich domain (CRD), MYC-tagged and GPI-anchored on CHO cells (human, UniProt Q9NPG1 24-150, GPI anchor); experiment: flow cytometry, CHO-CRD cells;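 note: flow cytometry of Fab binding to CHO cells overexpressing a Frizzled CRD, with binding defined as median fluorescence over twice that of CHO cells lacking any Frizzled CRD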
T3 construct: domain: cysteine-rich domain (CRD); also called FZD3 CRD; CHO-myc-FZDGPI; not shown: MYC tag and GPI anchor signal
T3 sequence (looked up): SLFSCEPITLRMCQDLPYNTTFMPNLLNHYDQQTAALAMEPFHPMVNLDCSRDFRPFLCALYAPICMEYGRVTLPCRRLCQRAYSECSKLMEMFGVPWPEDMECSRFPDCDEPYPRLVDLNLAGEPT

[4] = target: T4, FZD5 cysteine-rich domain (CRD), MYC-tagged and GPI-anchored on CHO cells (human, UniProt Q13467 29-156, GPI anchor); experiment: flow cytometry, CHO-CRD cells;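 note: flow cytometry of Fab binding to CHO cells overexpressing a Frizzled CRD, with binding defined as median fluorescence over twice that of CHO cells lacking any Frizzled CRD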
T4 construct: also called FZD5 CRD; CHO-myc-FZDGPI; not shown: MYC tag and GPI anchor signal
T4 sequence: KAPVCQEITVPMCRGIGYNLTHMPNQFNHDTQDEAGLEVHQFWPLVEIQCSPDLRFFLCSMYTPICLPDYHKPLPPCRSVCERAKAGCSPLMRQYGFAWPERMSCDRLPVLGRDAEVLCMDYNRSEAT

[5] = target: T5, FZD6 cysteine-rich domain (CRD), MYC-tagged and GPI-anchored on CHO cells (human, UniProt O60353 20-146, GPI anchor); experiment: flow cytometry, CHO-CRD cells
T5 construct: also called FZD6 CRD; CHO-myc-FZDGPI; not shown: MYC tag and GPI anchor signal
T5 sequence: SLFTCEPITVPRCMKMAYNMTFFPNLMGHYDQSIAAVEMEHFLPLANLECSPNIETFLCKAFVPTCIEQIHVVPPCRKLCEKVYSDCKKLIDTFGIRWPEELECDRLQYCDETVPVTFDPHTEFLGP

[6] = target: T6, FZD7 cysteine-rich domain (CRD), MYC-tagged and GPI-anchored on CHO cells (human, UniProt O75084 45-169); experiment: flow cytometry, CHO-CRD cells
Procedure: as §1

[7] = target: T7, FZD8 cysteine-rich domain (CRD), MYC-tagged and GPI-anchored on CHO cells (human, UniProt Q498S8 31-155 (rat entry), GPI anchor); experiment: flow cytometry, CHO-CRD cells
T7 construct: also called FZD8 CRD; CHO-myc-FZDGPI; not shown: MYC tag and GPI anchor signal
T7 sequence: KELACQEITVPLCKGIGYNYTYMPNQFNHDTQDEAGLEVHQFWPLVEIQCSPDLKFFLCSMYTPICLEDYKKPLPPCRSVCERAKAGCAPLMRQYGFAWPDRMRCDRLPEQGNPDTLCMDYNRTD

[8] = target: T8, FZD9 cysteine-rich domain (CRD), MYC-tagged and GPI-anchored on CHO cells (human, UniProt O00144 35-161, GPI anchor); experiment: flow cytometry, CHO-CRD cells
T8 construct: also called FZD9 CRD; CHO-myc-FZDGPI; not shown: MYC tag and GPI anchor signal
T8 sequence: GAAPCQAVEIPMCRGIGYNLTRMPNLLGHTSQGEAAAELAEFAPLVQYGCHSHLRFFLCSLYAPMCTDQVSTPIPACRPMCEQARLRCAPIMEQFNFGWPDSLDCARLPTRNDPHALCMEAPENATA

[9] = target: T9, FZD10 cysteine-rich domain (CRD), MYC-tagged and GPI-anchored on CHO cells (human, UniProt Q9ULW2 30-156, GPI anchor); experiment: flow cytometry, CHO-CRD cells
T9 construct: also called FZD10 CRD; CHO-myc-FZDGPI; not shown: MYC tag and GPI anchor signal
T9 sequence: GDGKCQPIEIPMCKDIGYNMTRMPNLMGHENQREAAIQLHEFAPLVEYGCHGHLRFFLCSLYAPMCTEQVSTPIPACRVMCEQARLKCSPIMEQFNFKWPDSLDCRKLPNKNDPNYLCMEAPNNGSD

[10] = target: T1, FZD1 cysteine-rich domain (CRD), …; experiment: immunofluorescence, CHO-CRD cells
[11] = target: T2, FZD2 cysteine-rich domain (CRD), …; experiment: immunofluorescence, CHO-CRD cells
[12] = target: T3, FZD3 cysteine-rich domain (CRD), …; experiment: immunofluorescence, CHO-CRD cells
[13] = target: T5, FZD6 cysteine-rich domain (CRD), …; experiment: immunofluorescence, CHO-CRD cells
[14] = target: T6, FZD7 cysteine-rich domain (CRD), …; experiment: immunofluorescence, CHO-CRD cells
[15] = target: T8, FZD9 cysteine-rich domain (CRD), …; experiment: immunofluorescence, CHO-CRD cells
[16] = target: T9, FZD10 cysteine-rich domain (CRD), …; experiment: immunofluorescence, CHO-CRD cells
[17] = target: T10, FZD4 cysteine-rich domain (CRD), MYC-tagged and GPI-anchored on CHO cells (human, UniProt Q9ULV1 42-167, GPI anchor); experiment: flow cytometry, CHO-CRD cells
T10 construct: also called FZD4 CRD; CHO-myc-FZDGPI; not shown: MYC tag and GPI anchor signal
T10 sequence: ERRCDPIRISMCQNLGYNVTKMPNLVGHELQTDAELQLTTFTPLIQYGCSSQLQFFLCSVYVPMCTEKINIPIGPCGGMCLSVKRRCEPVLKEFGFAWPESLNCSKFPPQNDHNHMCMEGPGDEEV

[18] = target: T10, FZD4 cysteine-rich domain (CRD), …; experiment: immunofluorescence, CHO-CRD cells

B1: Fab-2922 (Fab, V domains shown)
VH: EVQLVESGGGLVQPGGSLRLSCAASGFNIYSSYMHWVRQAPGKGLEWVASISPYSGYTSYADSVKGRFTISADTSKNTAYLQMNSLRAEDTAVYYCARTVRGSKKPYFSGWAMDYWGQGTLVTVSS
VL: DIQMTQSPSSLSASVGDRVTITCRASQSVSSAVAWYQQKPGKAPKLLIYSASSLYSGVPSRFSGSRSGTDFTLTISSLQPEDFATYYCQQSFVYPYLITFGQGTKVEIK
notes: Fab; also called Fv-2922
median fluorescence [1]: 4.83
median fluorescence [2]: 4.78
median fluorescence [3]: 4.1
median fluorescence [4]: 56.2
median fluorescence [5]: 3.68
median fluorescence [6]: 2.62
median fluorescence [7]: 9.14
median fluorescence [8]: 2.89
median fluorescence [9]: 2.74
binding result [10]: no binding
binding result [11]: no binding
binding result [12]: no binding
binding result [13]: no binding
binding result [14]: no binding
binding result [15]: no binding
binding result [16]: no binding

B2: Fab-2920 (Fab, V domains shown)
VH: EVQLVESGGGLVQPGGSLRLSCAASGFNISYYYIHWVRQAPGKGLEWVASIYPSSGSTSYADSVKGRFTISADTSKNTAYLQMNSLRAEDTAVYYCARGGMDYWGQGTLVTVSS
VL: DIQMTQSPSSLSASVGDRVTITCRASQSVSSAVAWYQQKPGKAPKLLIYSASSLYSGVPSRFSGSRSGTDFTLTISSLQPEDFATYYCQQWFAGALITFGQGTKVEIK
notes: Fab
median fluorescence [1]: 5.73
median fluorescence [2]: 4.57
median fluorescence [3]: 3.75
median fluorescence [17]: 4.22
median fluorescence [4]: 28.6
median fluorescence [5]: 3.02
median fluorescence [6]: 4.91
median fluorescence [7]: 7.5
median fluorescence [8]: 2.89
median fluorescence [9]: 2.94
binding result [10]: no binding
binding result [11]: no binding
binding result [12]: no binding
binding result [18]: no binding
binding result [13]: no binding
binding result [14]: no binding
binding result [15]: no binding
binding result [16]: no binding

B3: Fab-2935 (Fab, V domains shown)
VH: EVQLVESGGGLVQPGGSLRLSCAASGFNIYYYYIHWVRQAPGKGLEWVASIYPSSGSTSYADSVKGRFTISADTSKNTAYLQMNSLRAEDTAVYYCARAAFDYWGQGTLVTVSS
VL: DIQMTQSPSSLSASVGDRVTITCRASQSVSSAVAWYQQKPGKAPKLLIYSASSLYSGVPSRFSGSRSGTDFTLTISSLQPEDFATYYCQQWYGGYALITFGQGTKVEIK
notes: Fab; also called Fv-2935
median fluorescence [1]: 4.07
median fluorescence [2]: 6.79
median fluorescence [3]: 4.49
median fluorescence [4]: 29.2
median fluorescence [5]: 3.37
median fluorescence [6]: 3
median fluorescence [7]: 15.8
median fluorescence [8]: 3.52
median fluorescence [9]: 3.34
binding result [10]: no binding
binding result [11]: no binding
binding result [12]: no binding
binding result [13]: no binding
binding result [14]: no binding
binding result [15]: no binding
binding result [16]: no binding

B4: Fab-2936 (Fab, V domains shown)
VH: EVQLVESGGGLVQPGGSLRLSCAASGFNISYYYMHWVRQAPGKGLEWVASIYSSSGSTSYADSVKGRFTISADTSKNTAYLQMNSLRAEDTAVYYCARAAMDYWGQGTLVTVSS
VL: DIQMTQSPSSLSASVGDRVTITCRASQSVSSAVAWYQQKPGKAPKLLIYSASSLYSGVPSRFSGSRSGTDFTLTISSLQPEDFATYYCQQWYAASLITFGQGTKVEIK
notes: Fab; also called Fv-2936
median fluorescence [1]: 3.05
median fluorescence [2]: 3.52
median fluorescence [3]: 3
median fluorescence [17]: 3.65
median fluorescence [4]: 23.5
median fluorescence [5]: 2.57
median fluorescence [6]: 2.55
median fluorescence [7]: 7.04
median fluorescence [8]: 2.74
median fluorescence [9]: 2.5
binding result [10]: no binding
binding result [11]: no binding
binding result [12]: no binding
binding result [18]: no binding
binding result [13]: no binding
binding result [14]: no binding
binding result [15]: no binding
binding result [16]: no binding

B5: Fab-2924 (Fab, V domains shown)
VH: EVQLVESGGGLVQPGGSLRLSCAASGFNISYSYIHWVRQAPGKGLEWVASIYSYYSSTSYADSVKGRFTISADTSKNTAYLQMNSLRAEDTAVYYCARGALDYWGQGTLVTVSS
VL: DIQMTQSPSSLSASVGDRVTITCRASQSVSSAVAWYQQKPGKAPKLLIYSASSLYSGVPSRFSGSRSGTDFTLTISSLQPEDFATYYCQQWYSGHSLITFGQGTKVEIK
notes: Fab; also called Fv-2924
median fluorescence [1]: 6.26
median fluorescence [2]: 6.73
median fluorescence [3]: 4.7
median fluorescence [17]: 6.38
median fluorescence [4]: 39.2
median fluorescence [5]: 4.49
median fluorescence [6]: 6.49
median fluorescence [7]: 12.1
median fluorescence [8]: 4.49
median fluorescence [9]: 4.78
binding result [10]: no binding
binding result [11]: no binding
binding result [12]: no binding
binding result [18]: no binding
binding result [13]: no binding
binding result [14]: no binding
binding result [15]: no binding
binding result [16]: no binding
